This note sets out measurements from patent US20230277618A1 (BROAD INSTITUTE, published 2023).

The target of the experiment is T1, KIDINS220 (kinase D interacting substrate 220), endogenous in HEK-293T cells (human, UniProt Q9ULH0 1-1771).
T1 construct: whole, on cells; Endogenous protein of the 293 cells, detected by immunoblot after co-immunoprecipitation; also called ARMS; SINO
In words: co-immunoprecipitation by V5 tag from HEK-293T cells, immunoblot for endogenous KIDINS220.

T1 sequence (Q9ULH0 whole entry): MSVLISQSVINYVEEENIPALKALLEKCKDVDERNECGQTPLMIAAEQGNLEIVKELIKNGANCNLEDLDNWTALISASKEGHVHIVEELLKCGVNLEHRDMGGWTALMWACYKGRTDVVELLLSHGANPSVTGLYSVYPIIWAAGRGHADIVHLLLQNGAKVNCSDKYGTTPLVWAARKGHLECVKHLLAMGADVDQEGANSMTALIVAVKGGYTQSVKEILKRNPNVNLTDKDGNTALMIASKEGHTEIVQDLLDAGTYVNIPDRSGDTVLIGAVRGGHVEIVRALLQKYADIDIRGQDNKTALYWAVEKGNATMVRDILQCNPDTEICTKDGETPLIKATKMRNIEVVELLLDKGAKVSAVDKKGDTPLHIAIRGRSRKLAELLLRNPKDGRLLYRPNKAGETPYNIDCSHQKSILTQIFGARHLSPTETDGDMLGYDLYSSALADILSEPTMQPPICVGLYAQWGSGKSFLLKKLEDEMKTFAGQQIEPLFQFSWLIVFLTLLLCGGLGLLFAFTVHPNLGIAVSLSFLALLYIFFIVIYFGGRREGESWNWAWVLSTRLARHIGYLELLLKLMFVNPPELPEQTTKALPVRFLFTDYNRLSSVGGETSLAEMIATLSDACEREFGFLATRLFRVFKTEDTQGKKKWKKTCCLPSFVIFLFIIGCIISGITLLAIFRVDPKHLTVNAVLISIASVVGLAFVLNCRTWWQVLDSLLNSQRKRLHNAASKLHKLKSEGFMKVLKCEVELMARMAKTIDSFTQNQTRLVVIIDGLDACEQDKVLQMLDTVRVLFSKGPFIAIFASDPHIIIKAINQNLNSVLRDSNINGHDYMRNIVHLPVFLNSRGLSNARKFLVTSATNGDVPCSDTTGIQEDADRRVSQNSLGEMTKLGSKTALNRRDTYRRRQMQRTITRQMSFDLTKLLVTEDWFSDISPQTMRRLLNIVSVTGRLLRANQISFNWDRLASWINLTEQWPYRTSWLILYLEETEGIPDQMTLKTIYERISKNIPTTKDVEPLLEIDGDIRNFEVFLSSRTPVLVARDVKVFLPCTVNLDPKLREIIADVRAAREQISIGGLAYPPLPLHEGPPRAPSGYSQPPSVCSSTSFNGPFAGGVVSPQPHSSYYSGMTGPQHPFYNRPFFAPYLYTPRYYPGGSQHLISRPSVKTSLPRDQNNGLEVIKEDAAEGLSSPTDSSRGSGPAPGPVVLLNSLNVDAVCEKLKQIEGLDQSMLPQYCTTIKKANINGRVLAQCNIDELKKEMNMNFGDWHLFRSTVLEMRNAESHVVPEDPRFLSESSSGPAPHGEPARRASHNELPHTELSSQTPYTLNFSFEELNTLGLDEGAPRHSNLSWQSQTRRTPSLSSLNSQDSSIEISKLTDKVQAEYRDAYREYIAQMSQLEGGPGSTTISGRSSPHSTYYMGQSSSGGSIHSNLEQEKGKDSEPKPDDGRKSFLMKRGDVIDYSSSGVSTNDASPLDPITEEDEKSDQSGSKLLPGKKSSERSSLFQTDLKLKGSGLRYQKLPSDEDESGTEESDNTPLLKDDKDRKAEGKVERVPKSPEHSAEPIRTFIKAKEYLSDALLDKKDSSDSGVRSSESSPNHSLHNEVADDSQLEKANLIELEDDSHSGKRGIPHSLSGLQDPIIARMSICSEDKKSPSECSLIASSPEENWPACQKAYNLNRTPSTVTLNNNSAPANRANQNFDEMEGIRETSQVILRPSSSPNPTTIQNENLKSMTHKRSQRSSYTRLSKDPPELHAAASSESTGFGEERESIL

B1: XPR1 SPX domain only construct with C-terminal V5 tag (other, human, UniProt Q9UBH6 1-224, looked up, not shown: small tags and cut ends)
chain: MKFAEHLSAHITPEWRKQYIQYEAFKDMLYSAQDQAPSVEVTDEDTVKRYFAKFEEKFFQTCEKELAKINTFYSEKLAEAQRRFATLQNELQSSLDAQKESTGVTTLRQRRKPVFHLSHEERVQHRNIKDLKLAFSEFYLSLILLQNYQNLNFTGFRKILKKHDKILETSRGADWRVAHVEVAPFYTCKKINQLISETEAVVTNELEDGDRQKAMKRLRVPPLG
notes: domain: SPX domain; also called SPX domain only constructs; N-terminal SPX domain of XPR1
For the molecule B1, the binding result is “no binding”.
